Biological target: PPP1CA(2-330), His6-MBP tag cleaved by TEV protease (human, UniProt P62136 2-330)
Assay: SEC

Sequence of PPP1CA(2-330), His6-MBP tag cleaved by TEV protease (P62136 2-330): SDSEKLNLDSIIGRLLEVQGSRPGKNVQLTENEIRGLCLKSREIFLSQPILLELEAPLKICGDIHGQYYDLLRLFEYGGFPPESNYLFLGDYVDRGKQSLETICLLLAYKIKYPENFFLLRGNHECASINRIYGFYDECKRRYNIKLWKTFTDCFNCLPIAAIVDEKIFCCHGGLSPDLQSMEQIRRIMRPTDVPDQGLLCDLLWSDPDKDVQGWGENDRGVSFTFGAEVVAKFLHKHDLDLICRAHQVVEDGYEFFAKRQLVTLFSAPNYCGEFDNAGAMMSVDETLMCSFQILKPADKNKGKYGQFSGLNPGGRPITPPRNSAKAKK

stoichiometry N: 1
B1: SHOC2, native full-length (natural protein, human, UniProt Q9UQ13 1-582, looked up)
chain: MSSSLGKEKDSKEKDPKVPSAKEREKEAKASGGFGKESKEKEPKTKGKDAKDGKKDSSAAQPGVAFSVDNTIKRPNPAPGTRKKSSNAEVIKELNKCREENSMRLDLSKRSIHILPSSIKELTQLTELYLYSNKLQSLPAEVGCLVNLMTLALSENSLTSLPDSLDNLKKLRMLDLRHNKLREIPSVVYRLDSLTTLYLRFNRITTVEKDIKNLSKLSMLSIRENKIKQLPAEIGELCNLITLDVAHNQLEHLPKEIGNCTQITNLDLQHNELLDLPDTIGNLSSLSRLGLRYNRLSAIPRSLAKCSALEELNLENNNISTLPESLLSSLVKLNSLTLARNCFQLYPVGGPSQFSTIYSLNMEHNRINKIPFGIFSRAKVLSKLNMKDNQLTSLPLDFGTWTSMVELNLATNQLTKIPEDVSGLVSLEVLILSNNLLKKLPHGLGNLRKLRELDLEENKLESLPNEIAYLKDLQKLVLTNNQLTTLPRGIGHLTNLTHLGLGENLLTHLPEEIGTLENLEELYLNDNPNLHSLPFELALCSKLSIMSIENCPLSHLPPQIVAGGPSFIIQFLKMQGPYRAMV

From publication PMC8881745 (Protein expression and purification, 2022)
